Experimental data published in patent publication US20190241661A1.

What was measured:
[1] = molecular target: CD46, human (human) (UniProt P15529); assay: FACS titration on carcinoma cells, secondary antibody; dilution 1/500, final 2 µg/ml
[2] = molecular target: CD46, human (human) (UniProt P15529); assay: FACS titration on carcinoma cells; dilution just sufficient for a saturated staining
[3] = molecular target: CD46, human (human) (UniProt P15529); assay: FACS titration on carcinoma cells, secondary antibody; dilution 1/10, final 100 µg/ml
[4] = molecular target: CD46, human (human) (UniProt P15529); assay: FACS titration on carcinoma cells, secondary antibody; dilution 1/100, final 10 µg/ml
[5] = molecular target: CD46, human (human) (UniProt P15529); assay: FACS titration on carcinoma cells, secondary antibody; dilution 1/1000, final 1 µg/ml
[6] = molecular target: CD46, human (human) (UniProt P15529); assay: FACS titration on carcinoma cells, secondary antibody; dilution 1/5000, final 0.2 µg/ml
[7] = molecular target: CD46, human (human) (UniProt P15529); assay: FACS titration on carcinoma cells, secondary antibody; dilution 1/10000, final 0.1 µg/ml
[8] = molecular target: CD46, human (human) (UniProt P15529); assay: flow cytometry; directly labelled antibody on wild-type SK-OV-3 cells
[9] = molecular target: CD46, human (human) (UniProt P15529); assay: flow cytometry; directly labelled antibody on siRNA knockdown SK-OV-3 cells
[10] = molecular target: CD55, human (human) (UniProt P08174); assay: flow cytometry; directly labelled antibody on wild-type SK-OV-3 cells
UniProt P08174, sequence (P08174 35-353): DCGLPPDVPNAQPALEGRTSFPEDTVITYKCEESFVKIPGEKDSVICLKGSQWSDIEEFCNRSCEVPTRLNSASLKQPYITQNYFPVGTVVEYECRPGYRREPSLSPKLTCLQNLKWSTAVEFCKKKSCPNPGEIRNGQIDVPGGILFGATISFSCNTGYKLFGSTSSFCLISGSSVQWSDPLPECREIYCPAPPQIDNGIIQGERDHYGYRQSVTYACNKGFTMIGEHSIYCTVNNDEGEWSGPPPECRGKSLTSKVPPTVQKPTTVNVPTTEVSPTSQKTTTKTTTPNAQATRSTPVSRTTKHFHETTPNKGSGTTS

[11] = molecular target: CD55, human (human) (UniProt P08174); assay: flow cytometry; directly labelled antibody on siRNA knockdown SK-OV-3 cells
[12] = molecular target: CD59, human (human) (UniProt P13987); assay: FACS titration on carcinoma cells, secondary antibody; dilution 1/500, final 2 µg/ml
UniProt P13987, sequence (P13987 26-102): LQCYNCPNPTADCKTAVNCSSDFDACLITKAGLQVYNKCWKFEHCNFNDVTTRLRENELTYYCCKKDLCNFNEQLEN

[13] = molecular target: CD59, human (human) (UniProt P13987); assay: FACS titration on carcinoma cells; dilution just sufficient for a saturated staining
[14] = molecular target: CD59, human (human) (UniProt P13987); assay: FACS titration on carcinoma cells, secondary antibody; dilution 1/10, final 100 µg/ml
[15] = molecular target: CD59, human (human) (UniProt P13987); assay: FACS titration on carcinoma cells, secondary antibody; dilution 1/100, final 10 µg/ml
[16] = molecular target: CD59, human (human) (UniProt P13987); assay: FACS titration on carcinoma cells, secondary antibody; dilution 1/1000, final 1 µg/ml
[17] = molecular target: CD59, human (human) (UniProt P13987); assay: FACS titration on carcinoma cells, secondary antibody; dilution 1/5000, final 0.2 µg/ml
[18] = molecular target: CD59, human (human) (UniProt P13987); assay: FACS titration on carcinoma cells, secondary antibody; dilution 1/10000, final 0.1 µg/ml
[19] = molecular target: CD55, human (human) (UniProt P08174); assay: FACS titration on carcinoma cells, secondary antibody; dilution 1/500, final 2 µg/ml
[20] = molecular target: CD55, human (human) (UniProt P08174); assay: FACS titration on carcinoma cells; dilution just sufficient for a saturated staining
[21] = molecular target: CD55, human (human) (UniProt P08174); assay: FACS titration on carcinoma cells, secondary antibody; dilution 1/10, final 100 µg/ml
[22] = molecular target: CD55, human (human) (UniProt P08174); assay: FACS titration on carcinoma cells, secondary antibody; dilution 1/100, final 10 µg/ml
[23] = molecular target: CD55, human (human) (UniProt P08174); assay: FACS titration on carcinoma cells, secondary antibody; dilution 1/1000, final 1 µg/ml
[24] = molecular target: CD55, human (human) (UniProt P08174); assay: FACS titration on carcinoma cells, secondary antibody; dilution 1/5000, final 0.2 µg/ml
[25] = molecular target: CD55, human (human) (UniProt P08174); assay: FACS titration on carcinoma cells, secondary antibody; dilution 1/10000, final 0.1 µg/ml
[26] = molecular target: CD59, human (human) (UniProt P13987); assay: flow cytometry; directly labelled antibody on wild-type SK-OV-3 cells
[27] = molecular target: CD59, human (human) (UniProt P13987); assay: flow cytometry; directly labelled antibody on siRNA knockdown SK-OV-3 cells
[28] = molecular target: CD46, human (human) (UniProt P15529); assay: FACS titration on carcinoma cells, secondary antibody; dilution 1/10, final 10 µg/ml
[29] = molecular target: CD46, human (human) (UniProt P15529); assay: FACS titration on carcinoma cells, secondary antibody; dilution 1/100, final 1 µg/ml
[30] = molecular target: CD46, human (human) (UniProt P15529); assay: FACS titration on carcinoma cells, secondary antibody; dilution 1/500, final 0.2 µg/ml
[31] = molecular target: CD46, human (human) (UniProt P15529); assay: FACS titration on carcinoma cells, secondary antibody; dilution 1/1000, final 0.1 µg/ml
[32] = molecular target: CD46, human (human) (UniProt P15529); assay: FACS titration on carcinoma cells, secondary antibody; dilution 1/5000, final 0.02 µg/ml
[33] = molecular target: CD46, human (human) (UniProt P15529); assay: FACS titration on carcinoma cells, secondary antibody; dilution 1/10000, final 0.01 µg/ml

UniProt P15529, sequence (P15529 35-392): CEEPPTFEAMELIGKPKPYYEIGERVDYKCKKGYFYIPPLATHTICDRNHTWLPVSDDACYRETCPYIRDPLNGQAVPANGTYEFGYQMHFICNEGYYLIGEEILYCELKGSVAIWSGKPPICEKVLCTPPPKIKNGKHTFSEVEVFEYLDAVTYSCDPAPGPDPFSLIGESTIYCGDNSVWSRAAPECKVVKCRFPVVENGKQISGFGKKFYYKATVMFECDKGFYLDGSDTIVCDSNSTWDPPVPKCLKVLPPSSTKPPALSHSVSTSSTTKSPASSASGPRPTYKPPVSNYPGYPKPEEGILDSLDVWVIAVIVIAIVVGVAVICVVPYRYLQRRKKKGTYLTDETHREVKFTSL

“anti-human CD46 antibody #386, clone MEM258 (AbD Serotec, MCA2113)” was tested. Which Geom. Mean. FITC (geom. mean FITC) [1] did it give?
The Geom. Mean. FITC (geom. mean FITC) was 75500.

What about the 1x conc. (1-time saturating concentration) [2] of the same substance?
Its 1x conc. (1-time saturating concentration) is 0.2 µg/mL.

What about the Geom. Mean. FITC (geom. mean FITC) [3] of the same substance?
The Geom. Mean. FITC (geom. mean FITC) was 87600.

And the Geom. Mean. FITC (geom. mean FITC) [4]?
Its Geom. Mean. FITC (geom. mean FITC) is 79500.

What about the Geom. Mean. FITC (geom. mean FITC) [5] of the same substance?
The Geom. Mean. FITC (geom. mean FITC) was 75200.

And the Geom. Mean. FITC (geom. mean FITC) [6]?
The Geom. Mean. FITC (geom. mean FITC) was 66400.

What about the Geom. Mean. FITC (geom. mean FITC) [7] of the same substance?
Its Geom. Mean. FITC (geom. mean FITC) is 53500.

What does the source list for “anti-CD46-FITC antibody (BD Pharmingen, Cat. No. 555949)”?
FACS signal (FITC) [8]: 683 FITC signal; FACS signal (FITC) [9]: 662 FITC signal

With “anti-CD-55-APC antibody (BD Pharmingen, Cat. No. 555696)” as the substance, how does the FACS signal (APC) [10] read?
The FACS signal (APC) was 1450 APC signal.

What about the FACS signal (APC) [11] of the same substance?
The FACS signal (APC) was 275 APC signal.

“anti-human CD59 antibody #384, clone MEM43 (antibodies online, ABIN118751)” was tested. Which Geom. Mean. FITC (geom. mean FITC) [12] did it give?
Its Geom. Mean. FITC (geom. mean FITC) is 95500.

And the 1x conc. (1-time saturating concentration) [13]?
Its 1x conc. (1-time saturating concentration) is 0.2 µg/mL.

What about the Geom. Mean. FITC (geom. mean FITC) [14] of the same substance?
The Geom. Mean. FITC (geom. mean FITC) was 95200.

What about the Geom. Mean. FITC (geom. mean FITC) [15] of the same substance?
The Geom. Mean. FITC (geom. mean FITC) was 95500.

What about the Geom. Mean. FITC (geom. mean FITC) [16] of the same substance?
The Geom. Mean. FITC (geom. mean FITC) was 95500.

And the Geom. Mean. FITC (geom. mean FITC) [17]?
Its Geom. Mean. FITC (geom. mean FITC) is 94000.

And the Geom. Mean. FITC (geom. mean FITC) [18]?
Its Geom. Mean. FITC (geom. mean FITC) is 82400.

Which Geom. Mean. PE (geom. mean PE) [12] does the source give for “anti-human CD59 antibody #385, clone YTH53.1 (AbD Serotec, MCA715G)” here?
Its Geom. Mean. PE (geom. mean PE) is 62700.

What about the 1x conc. (1-time saturating concentration) [13] of the same substance?
Its 1x conc. (1-time saturating concentration) is 0.1 µg/mL.

What about the Geom. Mean. PE (geom. mean PE) [14] of the same substance?
The Geom. Mean. PE (geom. mean PE) was 55400.

And the Geom. Mean. PE (geom. mean PE) [15]?
The Geom. Mean. PE (geom. mean PE) was 64200.

What about the Geom. Mean. PE (geom. mean PE) [16] of the same substance?
Its Geom. Mean. PE (geom. mean PE) is 60500.

And the Geom. Mean. PE (geom. mean PE) [17]?
The Geom. Mean. PE (geom. mean PE) was 53800.

And the Geom. Mean. PE (geom. mean PE) [18]?
The Geom. Mean. PE (geom. mean PE) was 50100.

How did the Geom. Mean. FITC (geom. mean FITC) [19] turn out when “anti-human CD55 antibody #387, clone BRIC216 (AbD Serotec, MCA914)” was run?
The Geom. Mean. FITC (geom. mean FITC) was 25200.

What about the 1x conc. (1-time saturating concentration) [20] of the same substance?
Its 1x conc. (1-time saturating concentration) is 0.1 µg/mL.

What about the Geom. Mean. FITC (geom. mean FITC) [21] of the same substance?
The Geom. Mean. FITC (geom. mean FITC) was 32000.

And the Geom. Mean. FITC (geom. mean FITC) [22]?
The Geom. Mean. FITC (geom. mean FITC) was 26900.

And the Geom. Mean. FITC (geom. mean FITC) [23]?
The Geom. Mean. FITC (geom. mean FITC) was 25100.

And the Geom. Mean. FITC (geom. mean FITC) [24]?
Its Geom. Mean. FITC (geom. mean FITC) is 23700.

What about the Geom. Mean. FITC (geom. mean FITC) [25] of the same substance?
Its Geom. Mean. FITC (geom. mean FITC) is 24100.

What does the source list for “anti-CD59-PE antibody (BD Pharmingen, Cat. No. 555764)”?
FACS signal (PE) [26]: 1190 PE signal; FACS signal (PE) [27]: 649 PE signal

Which results are given for “anti-human CD46 antibody #383, clone M177 (Hycult, HM2103)”?
Geom. Mean. FITC (geom. mean FITC) [28]: 84000; Geom. Mean. FITC (geom. mean FITC) [29]: 81800; 1x conc. (1-time saturating concentration) [2]: 0.3 µg/mL; Geom. Mean. FITC (geom. mean FITC) [30]: 74000; Geom. Mean. FITC (geom. mean FITC) [31]: 50000; Geom. Mean. FITC (geom. mean FITC) [32]: 15800; Geom. Mean. FITC (geom. mean FITC) [33]: 14000
